The target of data set [1] is Full-length APLP2 (APP-like protein 2), Q06481.
The target in data set [2] is Wild-type human APP695 (β-amyloid precursor protein), P05067.
Data set [3] addresses T1, Full-length APLP1 (APP-like protein 1), P51693.
T1 chain: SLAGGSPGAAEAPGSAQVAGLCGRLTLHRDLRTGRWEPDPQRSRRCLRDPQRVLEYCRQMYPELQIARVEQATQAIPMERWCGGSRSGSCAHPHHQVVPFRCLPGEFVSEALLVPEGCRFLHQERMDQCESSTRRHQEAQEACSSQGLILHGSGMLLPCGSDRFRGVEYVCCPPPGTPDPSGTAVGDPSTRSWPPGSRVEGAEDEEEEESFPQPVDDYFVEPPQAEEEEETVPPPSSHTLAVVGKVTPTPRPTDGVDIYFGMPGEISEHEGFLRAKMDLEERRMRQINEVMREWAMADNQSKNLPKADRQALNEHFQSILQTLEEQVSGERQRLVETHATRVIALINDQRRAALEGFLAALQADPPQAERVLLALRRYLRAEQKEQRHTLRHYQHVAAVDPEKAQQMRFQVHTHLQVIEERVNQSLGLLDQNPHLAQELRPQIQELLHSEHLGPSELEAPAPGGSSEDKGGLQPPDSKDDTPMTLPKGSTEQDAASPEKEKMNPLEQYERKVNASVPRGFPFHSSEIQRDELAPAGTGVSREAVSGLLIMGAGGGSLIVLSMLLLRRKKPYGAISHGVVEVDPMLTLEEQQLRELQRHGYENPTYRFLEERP

Data set [4] has as its target APP-C125 (C-terminal 125 amino acids of APP695), P05067.
In data set [5] the target is APP D664A mutant (APP695), P05067.

The text below walks through data of US20110104715.

Chain of Full-length APLP2 (APP-like protein 2), Q06481 (Q06481 32-763): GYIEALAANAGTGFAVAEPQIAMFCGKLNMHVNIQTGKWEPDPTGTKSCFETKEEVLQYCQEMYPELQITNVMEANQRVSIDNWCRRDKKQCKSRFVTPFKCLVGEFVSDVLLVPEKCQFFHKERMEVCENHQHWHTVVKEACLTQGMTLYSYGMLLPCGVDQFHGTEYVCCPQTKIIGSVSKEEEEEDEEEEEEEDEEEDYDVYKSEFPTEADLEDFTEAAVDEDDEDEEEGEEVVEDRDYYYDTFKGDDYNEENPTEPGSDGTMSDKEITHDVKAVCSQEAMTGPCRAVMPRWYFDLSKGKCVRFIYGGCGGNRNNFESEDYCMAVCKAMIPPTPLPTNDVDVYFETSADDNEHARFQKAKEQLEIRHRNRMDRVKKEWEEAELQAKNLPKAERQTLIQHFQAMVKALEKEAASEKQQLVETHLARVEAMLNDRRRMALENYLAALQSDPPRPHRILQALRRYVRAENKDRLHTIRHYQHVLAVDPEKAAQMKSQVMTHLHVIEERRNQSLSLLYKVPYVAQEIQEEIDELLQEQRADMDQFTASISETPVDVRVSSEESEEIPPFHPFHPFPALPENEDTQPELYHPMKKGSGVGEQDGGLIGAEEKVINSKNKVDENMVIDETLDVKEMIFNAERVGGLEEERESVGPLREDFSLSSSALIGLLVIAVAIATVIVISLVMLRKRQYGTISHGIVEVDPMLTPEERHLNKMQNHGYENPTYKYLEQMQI

B1: Recombinant caspase-3 (protein)
chain: SGISLDNSYKMDYPEMGLCIIINNKNFHKSTGMTSRSGTDVDAANLRETFRNLKYEVRNKNDLTREEIVELMRDVSKEDHSKRSSFVCVLLSHGEEGIIFGTNGPVDLKKITNFFRGDRCRSLTGKPKLFIIQACRGTELDCGIETDSGVDDDMACHKIPVEADFLYAYSTAPGYYSWRNSKDGSWFIQSLCAMLKQYADKLEFMHILTRVNRKVATEFESFSFDATFHAKKQIPCIVSMLTKELYFYH
Take B1: the “generation of an APP-Neo-immunoreactive epitope by recombinant caspase in vitro” value (shortened to “generation”) was “in vitro transcribed/translated APLP1 and APLP2 yielded APP-Neo immunoreactive cleavage products only when incubated in the presence of recombinant caspase-3” in data set [1]; “an APP-Neo-immunoreactive epitope was detected in immunoblots of in vitro transcribed/translated full length APP that had been incubated in the presence of recombinant caspase-3, but not caspase-7 or -8” in data set [2]; “in vitro transcribed/translated APLP1 and APLP2 yielded APP-Neo immunoreactive cleavage products only when incubated in the presence of recombinant caspase-3” in data set [3]. For the same protein, the “in vitro cleavage of 35S-labelled in vitro transcribed/translated protein” value is “APLP2 may be cleaved in vitro by caspase-3 only, but with very low efficiency, if at all” in data set [1]; “APP can be cleaved by caspases-3 and -6, but not by caspase-8” in data set [2]; “APLP1, on the other hand, was cleaved in vitro only by caspase-3, not by caspase-6 or -8” in data set [3]. Also, in data set [4], the “in vitro caspase cleavage” value is “caspases-3, -6 and -8 are capable of cleaving APP”.

B2: Recombinant caspase-8 (protein)
chain: SESQTLDKVYQMKSKPRGYCLIINNHNFAKAREKVPKLHSIRDRNGTHLDAGALTTTFEELHFEIKPHDDCTVEQIYEILKIYQLMDHSNMDCFICCILSHGDKGIIYGTDGQEAPIYELTSQFTGLKCPSLAGKPKVFFIQACQGDNYQKGIPVETDSEEQPYLEMDLSSPQTRYIPDEADFLLGMATVNNCVSYRNPAEGTWYIQSLCQSLRERCPRGDDILTILTEVNYEVSNKDDKKNMGKQMPQPTFTLRKKLVFPSD
Regarding B2, the “generation” value is recorded as “APPD664A, did not yield detectable APP-Neo immunoreactive products after incubation with recombinant caspase-3, -7 or -8” in data set [5] and “an APP-Neo-immunoreactive epitope was detected in immunoblots of in vitro transcribed/translated full length APP that had been incubated in the presence of recombinant caspase-3, but not caspase-7 or -8” in data set [2]. The “in vitro cleavage of 35S-labelled in vitro transcribed/translated protein” value was “Like APLP1, APLP2 may be cleaved in vitro by caspase-3 only, but with very low efficiency, if at all” in data set [1]; “APP can be cleaved by caspases-3 and -6, but not by caspase-8” in data set [2]; “APLP1, on the other hand, was cleaved in vitro only by caspase-3, not by caspase-6 or -8” in data set [3]. For the same protein, in data set [4], the “in vitro caspase cleavage” value was “caspases-3, -6 and -8 are capable of cleaving APP”.

B3: Recombinant caspase-6 (protein)
chain: AFYKREMFDPAEKYKMDHRRRGIALIFNHERFFWHLTLPERRGTCADRDNLTRRFSDLGFEVKCFNDLKAEELLLKIHEVSTVSHADADCFVCVFLSHGEGNHIYAYDAKIEIQTLTGLFKGDKCHSLVGKPKIFIIQACRGNQHDVPVIPLDVVDNQTEKLDTNITEVDAASVYTLPAGADFLMCYSVAEGYYSHRETVNGSWYIQDLCEMLGKYGSSLEFTELLTLVNRKVSQRRVDFCKDPSAIGKKQVPCFASMLTKKLHFFPKSN
As for B3, the “in vitro cleavage of 35S-labelled in vitro transcribed/translated protein” value in data set [1] was “Like APLP1, APLP2 may be cleaved in vitro by caspase-3 only, but with very low efficiency, if at all”; in data set [2], “APP can be cleaved by caspases-3 and -6, but not by caspase-8”; in data set [3], “APLP1, on the other hand, was cleaved in vitro only by caspase-3, not by caspase-6 or -8”. Besides, in data set [4], the “in vitro caspase cleavage” value is “caspases-3, -6 and -8 are capable of cleaving APP”.

B4: Recombinant caspase-7 (protein)
chain: AKPDRSSFVPSLFSKKKKNVTMRSIKTTRDRVPTYQYNMNFEKLGKCIIINNKNFDKVTGMGVRNGTDKDAEALFKCFRSLGFDVIVYNDCSCAKMQDLLKKASEEDHTNAACFACILLSHGEENVIYGKDGVTPIKDLTAHFRGDRCKTLLEKPKLFFIQACRGTELDDGIQADSGPINDTDANPRYKIPVEADFLFAYSTVPGYYSWRSPGRGSWFVQALCSILEEHGKDLEIMQILTRVNDRVARHFESQSDDPHFHEKKQIPCVVSMLTKELYFSQ
B4: the “generation” value in data set [2] is “an APP-Neo-immunoreactive epitope was detected in immunoblots of in vitro transcribed/translated full length APP that had been incubated in the presence of recombinant caspase-3, but not caspase-7 or -8”.
